Common to all, as to assay: flow cytometry, CHO-K1; sub-column 2 of 2
In experiment [1] the target is T1, P44A.
T1 construct: also called hCD27 P44A
T1 receptor: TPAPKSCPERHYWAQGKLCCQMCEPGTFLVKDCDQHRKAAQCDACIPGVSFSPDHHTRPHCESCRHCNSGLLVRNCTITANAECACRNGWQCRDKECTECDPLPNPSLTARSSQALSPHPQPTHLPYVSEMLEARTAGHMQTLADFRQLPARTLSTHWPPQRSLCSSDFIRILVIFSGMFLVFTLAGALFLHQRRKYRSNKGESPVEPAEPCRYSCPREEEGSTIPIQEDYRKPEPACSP

In experiment [2] the target is T2, H36A.
T2 construct: also called hCD27 H36A
T2 receptor: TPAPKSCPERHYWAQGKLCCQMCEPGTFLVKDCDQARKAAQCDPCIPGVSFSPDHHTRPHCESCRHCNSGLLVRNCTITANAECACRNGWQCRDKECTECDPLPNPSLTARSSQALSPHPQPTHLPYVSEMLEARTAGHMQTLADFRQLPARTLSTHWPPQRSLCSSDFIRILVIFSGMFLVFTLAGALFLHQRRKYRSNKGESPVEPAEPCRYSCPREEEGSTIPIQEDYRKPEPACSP

For experiment [3], the target named is T3, D43A.
T3 construct: also called hCD27 D43A
T3 receptor: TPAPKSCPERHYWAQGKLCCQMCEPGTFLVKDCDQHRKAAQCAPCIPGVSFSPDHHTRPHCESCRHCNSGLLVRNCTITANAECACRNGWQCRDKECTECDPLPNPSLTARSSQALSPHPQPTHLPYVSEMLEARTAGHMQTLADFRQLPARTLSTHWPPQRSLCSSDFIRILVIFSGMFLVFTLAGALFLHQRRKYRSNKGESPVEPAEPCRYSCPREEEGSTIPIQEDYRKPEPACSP

In experiment [4] the target is T4, I46A.
T4 construct: also called hCD27 I46A
T4 receptor: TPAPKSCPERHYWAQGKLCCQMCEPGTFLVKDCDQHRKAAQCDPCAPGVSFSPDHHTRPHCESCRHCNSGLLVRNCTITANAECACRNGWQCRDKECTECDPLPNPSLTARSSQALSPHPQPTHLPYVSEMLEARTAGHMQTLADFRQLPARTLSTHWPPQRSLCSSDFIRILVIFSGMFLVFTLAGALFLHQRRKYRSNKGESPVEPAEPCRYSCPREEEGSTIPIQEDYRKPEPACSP

Experiment [5] has as its target T5, V49A.
T5 construct: also called hCD27 V49A
T5 receptor: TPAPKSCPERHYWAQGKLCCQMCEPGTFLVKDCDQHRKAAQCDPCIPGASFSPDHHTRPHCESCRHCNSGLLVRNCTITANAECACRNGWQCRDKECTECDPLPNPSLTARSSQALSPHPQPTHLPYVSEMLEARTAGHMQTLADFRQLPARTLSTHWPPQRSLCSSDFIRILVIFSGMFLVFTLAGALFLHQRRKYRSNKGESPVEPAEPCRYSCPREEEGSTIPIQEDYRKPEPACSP

In experiment [6] the target is T6, D32A.
T6 construct: also called hCD27 D32A
T6 receptor: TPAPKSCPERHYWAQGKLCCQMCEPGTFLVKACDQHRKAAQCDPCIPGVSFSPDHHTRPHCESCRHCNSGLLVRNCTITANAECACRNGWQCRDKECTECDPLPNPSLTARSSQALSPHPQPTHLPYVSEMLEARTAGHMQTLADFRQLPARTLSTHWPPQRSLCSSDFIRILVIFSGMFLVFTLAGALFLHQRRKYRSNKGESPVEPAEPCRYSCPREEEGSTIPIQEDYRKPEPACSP

Experiment [7] has as its target T7, K38A.
T7 construct: also called hCD27 K38A
T7 receptor: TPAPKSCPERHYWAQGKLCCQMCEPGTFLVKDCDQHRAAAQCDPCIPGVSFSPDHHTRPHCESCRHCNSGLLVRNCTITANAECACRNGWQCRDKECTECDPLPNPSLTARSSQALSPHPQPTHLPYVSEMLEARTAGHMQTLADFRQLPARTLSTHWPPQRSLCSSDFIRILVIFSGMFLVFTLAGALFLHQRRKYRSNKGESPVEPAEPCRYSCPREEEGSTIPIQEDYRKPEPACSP

Experiment [8] has as its target T8, P8A.
T8 construct: also called hCD27 P8A
T8 receptor: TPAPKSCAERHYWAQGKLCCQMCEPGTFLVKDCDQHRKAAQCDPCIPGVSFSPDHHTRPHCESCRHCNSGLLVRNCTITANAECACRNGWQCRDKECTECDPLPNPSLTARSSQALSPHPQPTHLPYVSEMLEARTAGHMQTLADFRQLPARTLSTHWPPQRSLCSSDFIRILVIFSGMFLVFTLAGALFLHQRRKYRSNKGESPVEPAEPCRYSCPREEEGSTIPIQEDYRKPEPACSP

In experiment [9] the target is T9, V30A.
T9 construct: also called hCD27 V30A
T9 receptor: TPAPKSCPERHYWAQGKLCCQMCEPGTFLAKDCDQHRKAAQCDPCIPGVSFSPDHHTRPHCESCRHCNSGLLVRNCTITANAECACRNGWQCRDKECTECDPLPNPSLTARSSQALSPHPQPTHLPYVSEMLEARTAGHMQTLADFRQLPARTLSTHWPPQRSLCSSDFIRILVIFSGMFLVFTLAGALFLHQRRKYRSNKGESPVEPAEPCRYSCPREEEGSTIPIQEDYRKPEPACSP

Experiment [10] has as its target T10, N88A.
T10 construct: also called hCD27 N88A
T10 receptor: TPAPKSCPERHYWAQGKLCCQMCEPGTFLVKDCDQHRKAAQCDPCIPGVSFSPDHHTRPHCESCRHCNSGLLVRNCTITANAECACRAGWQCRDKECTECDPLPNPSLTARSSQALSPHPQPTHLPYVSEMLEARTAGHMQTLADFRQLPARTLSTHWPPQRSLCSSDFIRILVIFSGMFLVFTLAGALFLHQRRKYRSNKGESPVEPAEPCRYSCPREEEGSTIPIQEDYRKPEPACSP

For the molecule 1A4 (mouse IgG1) (antibody), the % of WT hCD27 binding (geo mean FITC) stood at 90.5% in experiment [1]; 85.2% in [2]; 93.4% in [3]; 82.7% in [4]; 97% in [5]; 8.7% in experiment [6]. In addition, the % of WT hCD27 binding (geo mean FITC) was 97.7% in [7], 79.1% in experiment [8], 102% in [9] and 116% in experiment [10].

With 9F4 (mouse IgG2a) (antibody), the % of WT hCD27 binding (geo mean FITC) is 91.7% in [1]; 66.5% in [2]; 92.5% in experiment [3]; 82.7% in experiment [4]; 92.1% in [5]; 66.3% in [6]. Besides, the % of WT hCD27 binding (geo mean FITC) worked out at 31.6% in experiment [7], 62.2% in experiment [8], 95.6% in [9] and 104% in [10].

B1: Antibody hCD27.131A (mouse parental 131A) (antibody, V domains shown)
VH: QIQLVQSGPELKKPGETVKISCKASGYTFTNYGMNWVKQAPGKGLKWMGWINTNTGEPTYAEEFKGRFAFSLETSATTAYLQINNLKNEDTATYFCAREGDAMDYWGQGTSVTVSS
VL: QIVLTQSPAIMSASPGEKVTMTCSASSSVSYMHWYQQKSGTSPKRWIYDTSKLASGVPARFSGSGSGTSYSLTISSMEAEDAATYYCQQWNSYPFTFGSGTKLEIK
notes: mouse IgG1; also called mouse hCD27.131A
As for B1, the “% of WT hCD27 binding (geo mean FITC)” value in experiment [1] came to 91%; in experiment [2], 10.8%; in [3], 96.2%; in experiment [4] it was 75%; in experiment [5], 99.8%; in [6], 62.1%. The “% of WT hCD27 binding (geo mean FITC)” value in [7] worked out at 11.8%; in experiment [8], 15.9%; in experiment [9], 94%; in experiment [10] it was 124%.
